Article PMC8282340
pKd: −log10 of the molar value.

Tests used:
[1] = biological target: fluorescent BID peptide (human); assay: FP; conditions: natural protein
[2] = biological target: fluorescent NOXA peptide (human); assay: FP; conditions: natural protein
[3] = biological target: NOXA peptide fused to the C-terminal half of T7 RNAP; assay: luciferase assay; conditions: parent: est. 1.0; read off a plot

human MCL-1 fused to the N-terminal half of T7 RNAP, sequence (Q07820 whole entry, the tested form may be a part): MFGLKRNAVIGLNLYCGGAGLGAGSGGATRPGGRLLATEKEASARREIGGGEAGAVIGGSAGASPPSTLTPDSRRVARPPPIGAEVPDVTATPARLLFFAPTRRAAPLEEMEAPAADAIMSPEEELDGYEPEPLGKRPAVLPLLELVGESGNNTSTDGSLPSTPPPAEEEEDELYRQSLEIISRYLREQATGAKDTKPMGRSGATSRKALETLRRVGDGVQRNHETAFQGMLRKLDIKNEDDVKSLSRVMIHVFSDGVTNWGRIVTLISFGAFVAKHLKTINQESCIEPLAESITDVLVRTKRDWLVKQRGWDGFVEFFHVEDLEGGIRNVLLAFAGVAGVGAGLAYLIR
fluorescent NOXA peptide (human), sequence (Q13794 19-43): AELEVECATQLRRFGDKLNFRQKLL
fluorescent BID peptide (human), sequence (P55957 79-99): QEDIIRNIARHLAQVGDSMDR

Substance | pKd [1] | pKd [2] | ratio to parent [3]
human MCL-1 fused to the N-terminal half of T7 RNAP | 7.83 | 8.01 | –
human MCL-1 fused to the N-terminal half of T7 RNAP g202N; d263A | – | – | 0.84
human MCL-1 fused to the N-terminal half of T7 RNAP n200S; f258V | – | – | 3.8

More lines, now with the values ahead:

pKd [1] | pKd [2] | ratio to parent [3] | Substance
– | – | 1.1 | human MCL-1 fused to the N-terminal half of T7 RNAP a167T; g202S
– | – | 3.8 | human MCL-1 fused to the N-terminal half of T7 RNAP v189G
